A word on the Km: it is the substrate concentration at which the rate is half of its maximum. One may read the kcat as the number of substrate molecules converted per active site and unit of time at saturation.

Residue numbers refer to the chain shown, from its start. Names and notes keep the numbering of the source.

The results in this text go back to PMC10988713.

Substrate in data set [1]: C[C@H](O)CC(=O)SCCNC(=O)CCNC(=O)[C@H](O)C(C)(C)COP(=O)(O)OP(=O)(O)OC[C@H]1O[C@@H](n2cnc3c(N)ncnc32)[C@H](O)[C@@H]1OP(=O)(O)O
Kind of data set: purified protein. It is filed as biochemical, Rattus norvegicus. As to conditions: 1 mM NAD+, pH 9.0, 50 mM Tris, 50 mM KCl, 25 °C, HAD dehydrogenase reaction.

Substrate in data set [2]: C[C@H](O)CC(=O)SCCNC(=O)CCNC(=O)[C@H](O)C(C)(C)COP(=O)(O)OP(=O)(O)OC[C@H]1O[C@@H](n2cnc3c(N)ncnc32)[C@H](O)[C@@H]1OP(=O)(O)O
Kind of data set: purified protein. It is filed as biochemical, Homo sapiens. As to conditions: 1 mM NAD+, pH 9.0, 50 mM Tris, 50 mM KCl, 25 °C.

B1: BCDE (Rattus norvegicus) (protein)
chain: ASGQAKALQYAFFAEKSANKWSTPSGASWKTASAQPVSSVGVLGLGTMGRGIAISFARVGISVVAVESDPKQLDAAKKIITFTLEKEASRAHQNGQASAKPKLRFSSSTKELSTVDLVVEAVFEDMNLKKKVFAELSALCKPGAFLCTNTSALNVDDIASSTDRPQLVIGTHFFSPAHVMRLLEVIPSRYSSPTTIATVMSLSKKIGKIGVVVGNCYGFVGNRMLAPYYNQGFFLLEEGSKPEDVDGVLEEFGFKMGPFRVSDLAGLDVGWKIRKGQGLTGPSLPPGTPVRKRGNSRYSPLGDMLCEAGRFGQKTGKGWYQYDKPLGRIHKPDPWLSTFLSQYREVHHIEQRTISKEEILERCLYSLINEAFRILEEGMAARPEHIDVIYLHGYGWPRHKGGPMFYAASVGLPTVLEKLQKYYRQNPDIPQLEPSDYLRRLVAQGSPPLKEWQSLAGPHGSKL
notes: truncated RnMFE1 from Ala260 (ASGQ) to the C-terminus, without domain A (ECH part); N-terminal His6 tag, E. coli BL21(DE3) pLysS
In the case of B1, in “purified protein [1]”, the Km came to 5.2 ± 0.9 µM and the catalytic constant (kcat) came out at 1.6 ± 0.1 s⁻¹.

B2: HsHAD (Homo sapiens) (protein)
chain: SSSSTASASAKKIIVKHVTVIGGGLMGAGIAQVAAATGHTVVLVDQTEDILAKSKKGIEESLRKVAKKKFAENLKAGDEFVEKTLSTIATSTDAASVVHSTDLVVEAIVENLKVKNELFKRLDKFAAEHTIFASNTSSLQITSIANATTRQDRFAGLHFFNPVPVMKLVEVIKTPMTSQKTFESLVDFSKALGKHPVSCKDTPGFIVNRLLVPYLMEAIRLYERGDASKEDIDTAMKLGAGYPMGPFELLDYVGLDTTKFIVDGWHEMDAENPLHQPSPSLNKLVAENKFGKKTGEGFYKYK
notes: N-terminal His6 tag in pET28a, E. coli BL21(DE3) pLysS, dimer of 35 kDa subunits
For B2, in “purified protein [2]”, the Km was 19 ± 0.9 µM and the kcat was 42 ± 2 s⁻¹.

B3: RnMFE1 (Rattus norvegicus) (protein)
chain: MAEYLRLPHSLAMIRLCNPPVNAVSPTVIREVRNGLQKAGSDHTVKAIVICGANGNFCAGADIHGFSAFTPGLALGSLVDEIQRYQKPVLAAIQGVALGGGLELALGCHYRIANAKARVGLPEVTLGILPGARGTQLLPRVVGVPVALDLITSGKYLSADEALRLGILDAVVKSDPVEEAIKFAQKIIDKPIEPRRIFNKPVPSLPNMDSVFAEAIAKVRKQYPGVLAPETCVRSIQASVKHPYEVGIKEEEKLFMYLRASGQAKALQYAFFAEKSANKWSTPSGASWKTASAQPVSSVGVLGLGTMGRGIAISFARVGISVVAVESDPKQLDAAKKIITFTLEKEASRAHQNGQASAKPKLRFSSSTKELSTVDLVVEAVFEDMNLKKKVFAELSALCKPGAFLCTNTSALNVDDIASSTDRPQLVIGTHFFSPAHVMRLLEVIPSRYSSPTTIATVMSLSKKIGKIGVVVGNCYGFVGNRMLAPYYNQGFFLLEEGSKPEDVDGVLEEFGFKMGPFRVSDLAGLDVGWKIRKGQGLTGPSLPPGTPVRKRGNSRYSPLGDMLCEAGRFGQKTGKGWYQYDKPLGRIHKPDPWLSTFLSQYREVHHIEQRTISKEEILERCLYSLINEAFRILEEGMAARPEHIDVIYLHGYGWPRHKGGPMFYAASVGLPTVLEKLQKYYRQNPDIPQLEPSDYLRRLVAQGSPPLKEWQSLAGPHGSKL
Regarding B3, in “purified protein [1]”, the Km worked out at 11 ± 2 µM and the catalytic constant (kcat) stood at 1.9 ± 0.3 s⁻¹.

B4: RnMFE1 (Rattus norvegicus; E123A) (protein)
chain: B3 chain with E123A
With B4, in “purified protein [1]”, the Km amounted to 10 ± 0.6 µM and the catalytic constant (kcat) stood at 2.4 ± 0.1 s⁻¹.
